Laboratory results taken from patent publication US20230183336A1 (MODMAB THERAPEUTICS, published 2023).

Tests used:
[1] = target: T1, recombinant mouse LRP5-His chimera (mouse, UniProt Q91VN0 31-1383); experiment: single-point ELISA, coated antigen, purified Fab or IgG1, anti-kappa-HRP
T1 construct: extracellular domain; also called ECD of mouse LRP5; not shown: His tag
T1 sequence (looked up): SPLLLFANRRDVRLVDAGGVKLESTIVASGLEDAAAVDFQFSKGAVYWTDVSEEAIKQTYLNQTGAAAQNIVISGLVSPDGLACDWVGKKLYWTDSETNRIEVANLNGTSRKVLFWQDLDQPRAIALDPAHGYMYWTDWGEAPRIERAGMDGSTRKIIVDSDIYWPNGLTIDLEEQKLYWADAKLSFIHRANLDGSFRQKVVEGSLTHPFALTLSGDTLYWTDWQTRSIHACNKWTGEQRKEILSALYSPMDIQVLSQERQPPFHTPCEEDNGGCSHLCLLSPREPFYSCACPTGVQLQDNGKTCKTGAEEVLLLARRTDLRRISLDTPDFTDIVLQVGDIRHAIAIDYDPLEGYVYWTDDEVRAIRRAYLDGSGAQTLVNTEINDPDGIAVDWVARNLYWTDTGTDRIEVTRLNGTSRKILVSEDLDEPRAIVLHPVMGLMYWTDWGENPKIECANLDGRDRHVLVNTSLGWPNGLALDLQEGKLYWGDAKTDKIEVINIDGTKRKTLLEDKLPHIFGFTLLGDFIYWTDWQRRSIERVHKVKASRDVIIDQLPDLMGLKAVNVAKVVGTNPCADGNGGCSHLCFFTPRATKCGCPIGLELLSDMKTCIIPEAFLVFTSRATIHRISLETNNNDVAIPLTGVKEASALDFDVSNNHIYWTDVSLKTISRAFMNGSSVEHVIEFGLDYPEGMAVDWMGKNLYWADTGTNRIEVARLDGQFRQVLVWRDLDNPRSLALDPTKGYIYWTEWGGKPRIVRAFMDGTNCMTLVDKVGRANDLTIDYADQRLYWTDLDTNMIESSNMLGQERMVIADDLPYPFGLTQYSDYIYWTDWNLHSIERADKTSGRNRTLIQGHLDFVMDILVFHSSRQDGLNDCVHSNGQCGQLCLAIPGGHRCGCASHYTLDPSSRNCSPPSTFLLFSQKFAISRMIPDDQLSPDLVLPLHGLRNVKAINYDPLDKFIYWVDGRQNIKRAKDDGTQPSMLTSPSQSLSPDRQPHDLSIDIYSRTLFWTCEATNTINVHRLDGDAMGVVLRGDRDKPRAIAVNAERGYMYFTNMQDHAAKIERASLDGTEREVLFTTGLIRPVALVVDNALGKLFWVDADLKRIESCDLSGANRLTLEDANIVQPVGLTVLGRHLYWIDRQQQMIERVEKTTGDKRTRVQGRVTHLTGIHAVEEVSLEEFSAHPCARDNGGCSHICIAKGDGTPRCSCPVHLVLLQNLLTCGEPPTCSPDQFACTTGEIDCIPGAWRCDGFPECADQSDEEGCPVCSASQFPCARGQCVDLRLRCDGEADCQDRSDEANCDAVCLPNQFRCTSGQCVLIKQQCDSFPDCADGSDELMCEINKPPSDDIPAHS
Experimental: (§1) FIGS. 1A and 1B show sixteen (16) anti-LRP antibodies. (A) The amino acid sequences of the complementarity determining regions (CDR) of the heavy (H) and the light (L) chains are presented. The antibodies were grouped into unique epitopes as determined by competitive ELISAs. (B) Single-point ELISAs were performed on 96-well Maxisorb immune plates coated with ECD's of mouse LRP5, mouse LRP6 and human LRP6 chimeras. The plates were incubated with the purified Fab or IgG1 at the concentrations indicated followed by incubation with horseradish peroxidase (HRP)-conjugated anti-kappa antibody. The wells were washed eight times followed by incubation with 3,3′,5,5′-tetramethylbenzidine/H₂O₂ peroxidase (TMB) substrate for 5-10 min. The reaction was stopped by adding 1M H₃PO₄ and the absorbance was measured spectrometrically at 450 nm in a microtiter plate reader. FIG. 1A discloses “SSVA” as SEQ ID NO: 34, and “SASSLYS” as SEQ ID NO: 35, as well as SEQ ID NOS 36-49, 51, 44, 2-4, 4, 5-7, 5, 4, 5, 8-10, 4, 52, 55, 11-16, 15, 15, 13, 17-20, 13, 53, 56, 21-23, 22, 24-33, 54, 57, respectively, in order of columns.
(§2) The full length IgG1s and the antibody fragments (Fabs) were purified and a single-point ELISA was done to determine the specificity of the antibodies. […] A multipoint competitive ELISA was used to determine the relative affinities of the antibodies to the recombinant antigen.

[2] = target: T2, recombinant mouse LRP6-His chimera (mouse, UniProt O88572 20-1370); experiment: as above
T2 construct: extracellular domain; also called ECD of mouse LRP6; not shown: His tag
T2 sequence (looked up): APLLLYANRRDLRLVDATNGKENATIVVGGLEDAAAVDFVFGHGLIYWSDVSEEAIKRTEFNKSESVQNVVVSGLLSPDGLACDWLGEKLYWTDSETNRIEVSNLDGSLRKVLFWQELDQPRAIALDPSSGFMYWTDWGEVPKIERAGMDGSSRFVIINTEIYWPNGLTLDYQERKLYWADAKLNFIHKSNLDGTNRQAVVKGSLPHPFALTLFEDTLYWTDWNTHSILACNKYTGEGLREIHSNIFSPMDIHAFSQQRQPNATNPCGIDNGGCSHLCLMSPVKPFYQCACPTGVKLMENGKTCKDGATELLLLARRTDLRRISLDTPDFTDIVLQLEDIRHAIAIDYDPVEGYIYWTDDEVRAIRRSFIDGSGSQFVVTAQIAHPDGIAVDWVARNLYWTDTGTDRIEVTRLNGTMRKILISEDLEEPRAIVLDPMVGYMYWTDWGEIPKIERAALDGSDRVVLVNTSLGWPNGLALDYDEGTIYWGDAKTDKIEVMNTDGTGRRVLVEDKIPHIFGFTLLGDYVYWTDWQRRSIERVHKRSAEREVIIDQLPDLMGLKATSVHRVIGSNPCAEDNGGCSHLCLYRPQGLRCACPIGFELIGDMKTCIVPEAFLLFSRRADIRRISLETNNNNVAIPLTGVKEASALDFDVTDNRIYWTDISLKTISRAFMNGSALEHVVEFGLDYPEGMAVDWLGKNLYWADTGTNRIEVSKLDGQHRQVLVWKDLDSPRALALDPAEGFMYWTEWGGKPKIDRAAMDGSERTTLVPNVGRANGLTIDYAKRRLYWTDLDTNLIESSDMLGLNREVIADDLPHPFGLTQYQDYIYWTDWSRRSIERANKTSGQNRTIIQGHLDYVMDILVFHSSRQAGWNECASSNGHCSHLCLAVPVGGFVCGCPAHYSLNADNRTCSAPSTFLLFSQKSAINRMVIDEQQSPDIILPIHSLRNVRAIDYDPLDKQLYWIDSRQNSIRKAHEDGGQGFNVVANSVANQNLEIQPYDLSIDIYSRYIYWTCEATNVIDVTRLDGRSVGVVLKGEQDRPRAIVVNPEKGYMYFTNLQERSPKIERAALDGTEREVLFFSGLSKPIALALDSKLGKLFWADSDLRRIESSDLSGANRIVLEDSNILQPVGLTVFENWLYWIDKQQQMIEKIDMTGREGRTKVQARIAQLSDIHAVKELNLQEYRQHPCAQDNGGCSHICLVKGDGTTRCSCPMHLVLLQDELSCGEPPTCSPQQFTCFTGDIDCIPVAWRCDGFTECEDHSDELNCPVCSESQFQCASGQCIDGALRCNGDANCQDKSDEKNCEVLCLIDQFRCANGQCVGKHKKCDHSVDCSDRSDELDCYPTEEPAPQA
Experimental: as §1, §2

B1: LRP5-R3O_D3 (antibody, V domains shown)
VH: EVQLVESGGGLVQPGGSLRLSCAASGFNFSSSSIHWVRQAPGKGLEWVASISSSYGYTYYADSVKGRFTISADTSKNTAYLQMNSLRAEDTAVYYCARSWAMDYWGQGTLVTVSS
VL: DIQMTQSPSSLSASVGDRVTITCRASQSVSSAVAWYQQKPGKAPKLLIYSASSLYSGVPSRFSGSRSGTDFTLTISSLQPEDFATYYCQQYWAYYSPITFGQGTKVEIKR
notes: Fab-phage in the screen; also called LRP5-R30_D3; LRP5-R30D3
B1: binds [1]; binds [2].
